Laboratory results reported in patent publication US20230372448A1, “THERAPEUTIC USE OF LONG-ACTING CONJUGATE OF TRIPLE AGONIST ACTING ON ALL OF GLUCAGON, GLP-1 AND GIP RECEPTORS AGAINST MULTIPLE SCLEROSIS” (HANMI PHARM. CO. ,LTD., priority 2020, published 2023).
Positions of bridges follow the written chain, without caps; N, C: chain ends. Non-standard residues stand in square brackets, D forms with d. No end group written: not given here. *: point of attachment. Acetyl(2-(4-imidazolyl)) = O=C(Cc1c[nH]cn1)*; Aib = CC(C)(N)C(=O)O

T1: human GIP receptor (human, UniProt P48546 22-466)
T1 sequence (looked up): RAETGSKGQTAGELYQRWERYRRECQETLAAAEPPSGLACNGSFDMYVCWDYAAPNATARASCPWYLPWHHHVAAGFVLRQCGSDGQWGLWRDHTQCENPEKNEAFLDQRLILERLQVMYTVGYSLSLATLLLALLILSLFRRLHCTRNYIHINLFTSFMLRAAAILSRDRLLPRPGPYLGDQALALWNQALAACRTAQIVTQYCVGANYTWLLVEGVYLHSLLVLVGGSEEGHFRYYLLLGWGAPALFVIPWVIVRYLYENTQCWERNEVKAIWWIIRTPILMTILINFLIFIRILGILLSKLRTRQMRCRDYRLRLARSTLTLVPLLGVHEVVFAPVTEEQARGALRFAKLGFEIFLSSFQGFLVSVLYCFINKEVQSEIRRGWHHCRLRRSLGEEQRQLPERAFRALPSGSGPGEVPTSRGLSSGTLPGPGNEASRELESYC

B1: triple agonist of SEQ ID NO: 7 (peptide)
peptide: H[Aib]QGTFTSDVSKYLDGQAAKEFVAWLLKGC
modifications: not fully specified
B2: triple agonist of SEQ ID NO: 70 (peptide)
peptide: Y[Aib]QGTFTSDYSKCLDEKRAKDFVQWLLDHHPSSGQPPPS
modifications: bridge 16-20; not fully specified
B3: triple agonist of SEQ ID NO: 67 (peptide)
peptide: Y[Aib]QGTFTSDYSKYLDECAAKDFVQWLLDHHPSSGQPPPS
modifications: bridge 16-20
B4: triple agonist of SEQ ID NO: 68 (peptide)
peptide: Y[Aib]QGTFTSDYSKCLDEKAAKEFVQWLLDHHPSSGQPPPS
modifications: bridge 16-20; not fully specified
B5: triple agonist of SEQ ID NO: 65 (peptide)
peptide: H[Aib]QGTFTSDYSKCLDEKRAKEFVQWLLDHHPSSGQPPPS
modifications: bridge 16-20; not fully specified
B6: triple agonist of SEQ ID NO: 66 (peptide)
peptide: Y[Aib]QGTFTSDYSKYLDECRAKDFVQWLLDHHPSSGQPPPS
modifications: bridge 16-20; not fully specified
B7: triple agonist of SEQ ID NO: 64 (peptide)
peptide: Y[Aib]QGTFTSDYSKYLDECAAKEFVQWLLDHHPSSGQPPPS
modifications: bridge 16-20; not fully specified
B8: triple agonist of SEQ ID NO: 61 (peptide)
peptide: {Acetyl(2-(4-imidazolyl))}-[Aib]QGTFTSDYSIAMDEIACKDFVNWLLNTK
modifications: bridge 15-19; not fully specified
B9: triple agonist of SEQ ID NO: 69 (peptide)
peptide: Y[Aib]QGTFTSDYSKCLDERAAKEFVQWLLDHHPSSGQPPPS
modifications: bridge 16-20; not fully specified
B10: triple agonist of SEQ ID NO: 62 (peptide)
peptide: {Acetyl(2-(4-imidazolyl))}-[Aib]QGTFTSDKSKYLDERAAQDFVQWLLDGGPSSGAPPPS
modifications: not fully specified
B11: triple agonist of SEQ ID NO: 63 (peptide)
peptide: {Acetyl(2-(4-imidazolyl))}-[Aib]QGTFTSDCSKYLDERAAQDFVQWLLDGGPSSGAPPPS
modifications: not fully specified

Molecular target: human GLP-1 receptor (human, UniProt P43220 24-463)
Assay: cell-based or functional assay

Compared with B1, B2 is higher in “In vitro activity (%) compared with native peptide: vs GLP-1” value (“In vitro activity (%) … vs GLP-1” below): 13.7% for the first, 15.1% for the second.

Going from B3 to B4, the “In vitro activity (%) … vs GLP-1” value falls from 28.5% to 27.9%.

First: B5
Second: B6
The “In vitro activity (%) … vs GLP-1” value of the first is higher: 95.4% for the first, 15.8% for the second.

First: B7
Second: B8
The “In vitro activity (%) … vs GLP-1” value of the first is higher: 64.6% for the first, 59.8% for the second.

Compared with B9, B10 is lower in “In vitro activity (%) … vs GLP-1” value: 24.3% for the first, 5.2% for the second.

For B11, the “In vitro activity (%) … vs GLP-1” value was 15.3%.

Molecular target: T1, human GIP receptor
Assay: cell-based or functional assay

Compared with B1, B2 is higher in “In vitro activity (%) compared with native peptide: vs GIP” value (“In vitro activity (%) … vs GIP” for short): less than 0.1% for the first, 64.4% for the second.

First: B3
Second: B4
The “In vitro activity (%) … vs GIP” value of the first is lower: 39.8% for the first, 107% for the second.

Compared with B5, B6 is higher in “In vitro activity (%) … vs GIP” value: 11.6% for the first, 17.2% for the second.

First: B7
Second: B8
The “In vitro activity (%) … vs GIP” value of the first is higher: 92.9% for the first, 2.8% for the second.

First: B9
Second: B10
The “In vitro activity (%) … vs GIP” value of the first is higher: 62.8% for the first, less than 0.1% for the second.

In the case of B11, the “In vitro activity (%) … vs GIP” value is reported as less than 0.1%.

Molecular target: human GCG receptor (human, UniProt P47871 26-477)
Sequence (P47871 26-477): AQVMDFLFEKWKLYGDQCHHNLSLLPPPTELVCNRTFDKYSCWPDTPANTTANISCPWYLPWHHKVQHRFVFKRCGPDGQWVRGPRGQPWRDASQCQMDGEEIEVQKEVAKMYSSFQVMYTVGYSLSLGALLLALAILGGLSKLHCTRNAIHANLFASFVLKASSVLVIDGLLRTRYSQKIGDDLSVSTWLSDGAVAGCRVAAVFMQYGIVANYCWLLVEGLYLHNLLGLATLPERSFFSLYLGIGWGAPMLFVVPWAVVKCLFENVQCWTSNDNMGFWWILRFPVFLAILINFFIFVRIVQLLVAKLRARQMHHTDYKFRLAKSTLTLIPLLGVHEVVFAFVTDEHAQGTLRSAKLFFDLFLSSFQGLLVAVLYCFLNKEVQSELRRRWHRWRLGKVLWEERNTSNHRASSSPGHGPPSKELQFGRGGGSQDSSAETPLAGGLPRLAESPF
Assay: cell-based or functional assay

Compared with B1, B2 is higher in “In vitro activity (%) compared with native peptide: vs Glucagon” value (“In vitro activity (%) … vs Glucagon” below): less than 0.1% for the first, 71.3% for the second.

Compared with B3, B4 is lower in “In vitro activity (%) … vs Glucagon” value: 46.2% for the first, 8.8% for the second.

Compared with B5, B6 is higher in “In vitro activity (%) … vs Glucagon” value: 25.2% for the first, 172% for the second.

First: B7
Second: B8
The “In vitro activity (%) … vs Glucagon” value of the first is higher: 60.1% for the first, less than 0.1% for the second.

Compared with B9, B10 is lower in “In vitro activity (%) … vs Glucagon” value: 9.6% for the first, less than 0.1% for the second.

In the case of B11, the “In vitro activity (%) … vs Glucagon” value is reported as less than 0.1%.
